Experimental data: article PMC10397247

Columns and labels:
Test in all cases: two-hybrid library CCNG1;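 further: natural log of median RNA to DNA barcode read ratio; higher means stronger binding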
4H1158-bN = target: T1, 4H1158-bN
T1 chain: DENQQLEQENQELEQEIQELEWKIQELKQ

4H118-bN = target: T2, 4H118-bN
T2 chain: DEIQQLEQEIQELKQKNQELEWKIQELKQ

4H170-bN = target: T3, 4H170-bN
T3 chain: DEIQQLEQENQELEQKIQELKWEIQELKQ

4H1831-bN = target: T4, 4H1831-bN
T4 chain: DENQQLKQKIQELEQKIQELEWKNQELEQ

4H2586-bN = target: T5, 4H2586-bN
T5 chain: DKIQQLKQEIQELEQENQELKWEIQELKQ

4H2627-bN = target: T6, 4H2627-bN
T6 chain: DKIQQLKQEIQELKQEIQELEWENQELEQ

4H2673-bN = target: T7, 4H2673-bN
T7 chain: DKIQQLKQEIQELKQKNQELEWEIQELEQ

4H2702-bN = target: T8, 4H2702-bN
T8 chain: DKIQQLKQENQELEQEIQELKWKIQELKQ

4H3010-bN = target: T9, 4H3010-bN
T9 chain: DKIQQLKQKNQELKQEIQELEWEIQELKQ

4H3112-bN = target: T10, 4H3112-bN
T10 chain: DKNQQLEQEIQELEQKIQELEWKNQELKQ

4H3427-bN = target: T11, 4H3427-bN
T11 chain: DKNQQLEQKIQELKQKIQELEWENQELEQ

4H346-bN = target: T12, 4H346-bN
T12 chain: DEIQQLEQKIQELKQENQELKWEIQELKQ

4H3926-bN = target: T13, 4H3926-bN
T13 chain: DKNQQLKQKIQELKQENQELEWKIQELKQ

4H4073-bN = target: T14, 4H4073-bN
T14 chain: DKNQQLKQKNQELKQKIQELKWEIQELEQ

4H457-bN = target: T15, 4H457-bN
T15 chain: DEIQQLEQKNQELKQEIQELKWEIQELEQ

4H575-bN = target: T16, 4H575-bN
T16 chain: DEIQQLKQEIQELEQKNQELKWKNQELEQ

4H683-bN = target: T17, 4H683-bN
T17 chain: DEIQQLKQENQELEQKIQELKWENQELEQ

4H754-bN = target: T18, 4H754-bN
T18 chain: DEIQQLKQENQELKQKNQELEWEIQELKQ

4H780-bN = target: T19, 4H780-bN
T19 chain: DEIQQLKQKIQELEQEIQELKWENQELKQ

4H797-bN = target: T20, 4H797-bN
T20 chain: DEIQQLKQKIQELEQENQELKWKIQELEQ

4H855-bN = target: T21, 4H855-bN
T21 chain: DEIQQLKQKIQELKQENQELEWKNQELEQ

4H918-bN = target: T22, 4H918-bN
T22 chain: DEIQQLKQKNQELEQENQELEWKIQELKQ

4H953-bN = target: T23, 4H953-bN
T23 chain: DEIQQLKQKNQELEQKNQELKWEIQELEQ

4H968-bN = target: T24, 4H968-bN
T24 chain: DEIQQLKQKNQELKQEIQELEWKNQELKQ

P11A = target: T25, P11A
T25 chain: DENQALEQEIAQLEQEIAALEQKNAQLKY

P12A = target: T26, P12A
T26 chain: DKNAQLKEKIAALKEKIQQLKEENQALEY

P1A = target: T27, P1A
T27 chain: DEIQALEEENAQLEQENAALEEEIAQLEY

P2A = target: T28, P2A
T28 chain: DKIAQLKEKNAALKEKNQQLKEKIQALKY

P3A = target: T29, P3A
T29 chain: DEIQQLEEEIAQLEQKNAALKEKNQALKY

P4A = target: T30, P4A
T30 chain: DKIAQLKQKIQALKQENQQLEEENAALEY

P5A = target: T31, P5A
T31 chain: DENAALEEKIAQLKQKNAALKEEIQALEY

P6A = target: T32, P6A
T32 chain: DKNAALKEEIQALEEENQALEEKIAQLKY

P7A = target: T33, P7A
T33 chain: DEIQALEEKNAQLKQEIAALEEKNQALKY

P8A = target: T34, P8A
T34 chain: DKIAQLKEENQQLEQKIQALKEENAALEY

P9A = target: T35, P9A
T35 chain: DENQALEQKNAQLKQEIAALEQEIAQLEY

4H1158-bH = target: T36, 4H1158-bH
T36 chain: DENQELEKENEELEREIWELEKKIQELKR

4H118-bH = target: T37, 4H118-bH
T37 chain: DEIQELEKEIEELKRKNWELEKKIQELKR

4H170-bH = target: T38, 4H170-bH
T38 chain: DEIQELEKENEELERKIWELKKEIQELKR

4H1831-bH = target: T39, 4H1831-bH
T39 chain: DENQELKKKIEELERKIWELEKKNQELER

4H2586-bH = target: T40, 4H2586-bH
T40 chain: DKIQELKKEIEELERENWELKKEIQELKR

4H2627-bH = target: T41, 4H2627-bH
T41 chain: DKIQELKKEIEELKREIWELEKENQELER

4H2673-bH = target: T42, 4H2673-bH
T42 chain: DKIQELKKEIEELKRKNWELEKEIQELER

4H2702-bH = target: T43, 4H2702-bH
T43 chain: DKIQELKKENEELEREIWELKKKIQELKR

4H3010-bH = target: T44, 4H3010-bH
T44 chain: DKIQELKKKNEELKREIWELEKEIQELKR

4H3112-bH = target: T45, 4H3112-bH
T45 chain: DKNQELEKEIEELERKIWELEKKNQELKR

4H3427-bH = target: T46, 4H3427-bH
T46 chain: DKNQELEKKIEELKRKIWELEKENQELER

4H346-bH = target: T47, 4H346-bH
T47 chain: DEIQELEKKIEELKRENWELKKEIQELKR

4H3926-bH = target: T48, 4H3926-bH
T48 chain: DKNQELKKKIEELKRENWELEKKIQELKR

4H4073-bH = target: T49, 4H4073-bH
T49 chain: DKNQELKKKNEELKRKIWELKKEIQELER

4H457-bH = target: T50, 4H457-bH
T50 chain: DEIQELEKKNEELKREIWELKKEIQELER

4H575-bH = target: T51, 4H575-bH
T51 chain: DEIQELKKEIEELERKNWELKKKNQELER

4H683-bH = target: T52, 4H683-bH
T52 chain: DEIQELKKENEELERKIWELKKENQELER

4H754-bH = target: T53, 4H754-bH
T53 chain: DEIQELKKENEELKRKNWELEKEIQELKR

4H780-bH = target: T54, 4H780-bH
T54 chain: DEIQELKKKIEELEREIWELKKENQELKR

4H797-bH = target: T55, 4H797-bH
T55 chain: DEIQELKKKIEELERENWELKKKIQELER

4H855-bH = target: T56, 4H855-bH
T56 chain: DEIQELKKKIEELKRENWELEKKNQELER

4H918-bH = target: T57, 4H918-bH
T57 chain: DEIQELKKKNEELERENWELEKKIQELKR

4H953-bH = target: T58, 4H953-bH
T58 chain: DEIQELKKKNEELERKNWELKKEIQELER

4H968-bH = target: T59, 4H968-bH
T59 chain: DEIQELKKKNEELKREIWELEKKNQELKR

4H1387-bH = target: T60, 4H1387-bH
T60 chain: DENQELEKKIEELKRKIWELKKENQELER

4H1406-bH = target: T61, 4H1406-bH
T61 chain: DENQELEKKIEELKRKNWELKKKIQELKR

4H3592-bH = target: T62, 4H3592-bH
T62 chain: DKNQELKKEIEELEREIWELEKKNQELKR

4H3601-bH = target: T63, 4H3601-bH
T63 chain: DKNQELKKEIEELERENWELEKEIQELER

4H3907-bH = target: T64, 4H3907-bH
T64 chain: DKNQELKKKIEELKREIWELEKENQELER

4H4001-bH = target: T65, 4H4001-bH
T65 chain: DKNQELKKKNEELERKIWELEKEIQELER

4H4038-bH = target: T66, 4H4038-bH
T66 chain: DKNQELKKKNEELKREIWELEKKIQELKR

4H850-bN = target: T67, 4H850-bN
T67 chain: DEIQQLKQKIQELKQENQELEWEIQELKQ

## DENQQLEQENQELEQEIQELEWKIQELKQ [4H1158-bN]
4H1158-bN
  interaction score: 0.0264
4H118-bN
  interaction score: 0.579
4H170-bN
  interaction score: -0.262
4H1831-bN
  interaction score: -0.553
4H2586-bN
  interaction score: 0.693
4H2627-bN
  interaction score: -1.89
4H2673-bN
  interaction score: -1.07
4H2702-bN
  interaction score: -0.191
4H3010-bN
  interaction score: 1.32
4H3112-bN
  interaction score: 0.501
4H3427-bN
  interaction score: -0.273
4H346-bN
  interaction score: -0.45
4H3926-bN
  interaction score: -1.19
4H4073-bN
  interaction score: 2.1
4H457-bN
  interaction score: 0.107
4H575-bN
  interaction score: -0.306
4H683-bN
  interaction score: 0.827
4H754-bN
  interaction score: 0.195
4H780-bN
  interaction score: -0.000435
4H797-bN
  interaction score: -0.804
4H855-bN
  interaction score: 0.326
4H918-bN
  interaction score: -1.72
4H953-bN
  interaction score: 0.0849
4H968-bN
  interaction score: -1.23

## DENQALEQEIAQLEQEIAALEQKNAQLKY [P11A]
P11A
  interaction score: -0.318
P12A
  interaction score: 2.09
P1A
  interaction score: -0.233
P2A
  interaction score: -0.397
P3A
  interaction score: 0.195
P4A
  interaction score: 1.99
P5A
  interaction score: 0.167
P6A
  interaction score: -0.873
P7A
  interaction score: -1.77
P8A
  interaction score: -0.16
P9A
  interaction score: 0.145

## DENQELEKENEELEREIWELEKKIQELKR [4H1158-bH]
4H1158-bH
  interaction score: 0.619
4H118-bH
  interaction score: 0.729
4H170-bH
  interaction score: 0.0131
4H1831-bH
  interaction score: 0.197
4H2586-bH
  interaction score: 0.198
4H2627-bH
  interaction score: 1.81
4H2673-bH
  interaction score: 0.836
4H2702-bH
  interaction score: 0.109
4H3010-bH
  interaction score: 1.95
4H3112-bH
  interaction score: -0.598
4H3427-bH
  interaction score: 0.596
4H346-bH
  interaction score: 0.268
4H3926-bH
  interaction score: 1.63
4H4073-bH
  interaction score: 1.57
4H457-bH
  interaction score: 0.951
4H575-bH
  interaction score: 0.888
4H683-bH
  interaction score: 1.13
4H754-bH
  interaction score: 0.159
4H780-bH
  interaction score: 0.975
4H797-bH
  interaction score: 0.508
4H855-bH
  interaction score: -0.335
4H918-bH
  interaction score: -0.233
4H953-bH
  interaction score: 0.0112
4H968-bH
  interaction score: 0.725

## DKNAQLKEKIAALKEKIQQLKEENQALEY [P12A]
P12A
  interaction score: -1.24
P1A
  interaction score: -1.2
P2A
  interaction score: -1.43
P3A
  interaction score: 0.438
P4A
  interaction score: -1.48
P5A
  interaction score: -1.22
P6A
  interaction score: -1.16
P7A
  interaction score: -1.15
P8A
  interaction score: -1.25
P9A
  interaction score: -0.254

## DENQELEKKIEELKRKIWELKKENQELER [4H1387-bH]
4H1387-bH
  interaction score: 0.423
4H1406-bH
  interaction score: -0.693
4H3592-bH
  interaction score: 1.37
4H3601-bH
  interaction score: -0.847
4H3907-bH
  interaction score: 1.59
4H4001-bH
  interaction score: 0.333
4H4038-bH
  interaction score: 1.09
4H850-bN
  interaction score: 0.44
